Measured values reported in publication PMC6424596 (Current biology : CB, 2019).

Biological target: T1, Cdr2-flag (S. pombe, UniProt P87050 1-775)
T1 sequence (looked up): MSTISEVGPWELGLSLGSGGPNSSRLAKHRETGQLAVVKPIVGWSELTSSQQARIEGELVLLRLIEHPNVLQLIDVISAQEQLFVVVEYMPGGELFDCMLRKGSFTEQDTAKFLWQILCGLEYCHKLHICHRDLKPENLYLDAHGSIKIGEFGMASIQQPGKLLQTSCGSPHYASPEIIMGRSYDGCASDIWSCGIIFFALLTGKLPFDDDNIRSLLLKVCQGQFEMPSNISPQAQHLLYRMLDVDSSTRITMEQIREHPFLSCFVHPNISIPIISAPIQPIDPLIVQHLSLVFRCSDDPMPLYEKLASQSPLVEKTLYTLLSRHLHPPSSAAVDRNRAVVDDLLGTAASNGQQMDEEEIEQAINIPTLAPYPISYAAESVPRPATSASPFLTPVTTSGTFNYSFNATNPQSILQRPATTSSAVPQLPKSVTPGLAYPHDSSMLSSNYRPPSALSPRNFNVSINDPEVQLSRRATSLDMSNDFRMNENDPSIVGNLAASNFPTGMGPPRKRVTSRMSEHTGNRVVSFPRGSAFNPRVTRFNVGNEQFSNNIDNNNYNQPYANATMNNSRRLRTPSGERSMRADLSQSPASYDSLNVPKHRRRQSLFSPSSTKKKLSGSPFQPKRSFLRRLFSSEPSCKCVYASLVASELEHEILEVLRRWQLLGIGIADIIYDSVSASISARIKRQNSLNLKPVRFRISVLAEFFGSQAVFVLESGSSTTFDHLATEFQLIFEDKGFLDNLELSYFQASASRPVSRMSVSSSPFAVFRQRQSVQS
Experiment: co-IP

fold co-immunoprecipitated against Mid1-myc13: ~2 fold
B1: Mid1–9A-myc13 (natural protein, S. pombe, UniProt P78953 1-920, looked up)
chain: MKEQEFSYREAKDVSLDSKGLENSFLSSPNREKTPLFFEGNSNETSGYDQTKNFTHGDGDMSLGNLSELNVATDLLESLDLRSMYMHGYGHLDSSFSSQHSPDNRKRMSATSVFKRINSEEEGRIPALTYSAGTMNSTSSSTASLKGADIVADYETFNPDQNLAELSFDRSKSSRKRAVEVAEFSRAKTMSPLEYTVQHPYQSHNELSTNPARARAGAVPNLARIPADVKPVPPAHLSASSTVGPRILPSLPKDTTEDNPALERVETTASLDMDYKPLEPLAPIQEAPVEDTSEPFSSVPEATLDDSDISTESLRKKVLAKMEAKRISAGSSYASTLRKVYDFSELSLPTNGKDYDELYLQSSRNSEPEISTIINDSLQQENMDEDISATSIPKSQAAYGHGSVTYHEVPRYNLTSASVGYSISSQRGRIKASSTIDNLSAILSSEDLRHPAMQPVPGTKRTYANYCENEPNKSSQSLVSSESHNVEGWNYSETGTVGFYDPSAEISASIDELRQSTPVARDSELLSRAHAFDLNRLDLPSQDKSTSYEVPNGTENQSPRPVTSLGFVNETFFEEKPKAPLPLGRFYIHLNSILNISISEVHSPIKIIVNTPTQNMQLPWQAVNGNNRLDHDFAFHVDDNFKVSFMFLDIPIEDKSNGSKGVSATKDVSNGKPAETKSKARKFFDKLFNRRKKRKLNKAAAVENSKAKKSVVIKKVSGTATLNLGNVKDSCFGKAFNVEIPIISRGFLEAIPVKINSIGKRTLGNLTLTCLYIPELSVPEQELPFTLEQATMDLRHVRSNYLYNEGYLYRLEDSSIRRRFVVLRSKQLNFYAEKGGQYLDTFQLSKTVVSIPMVNFSEAVSNLGLVAGILATSVDRRHVQLFADSKKVCQKWLQVMNSRSFALDRGTEKLWLQEYVNFMA
